{"source": "paper PMC10917064", "key": {"[1]": {"target": "mmUb-K240/K286 VASP (VASP^CCC-SSA K240C, K286C crosslinked by bismaleimidoethane to two ubiquitin^(1-74, G75C)) (UniProt P0CG48)", "test": "mass photometry; 15 nM VASP, room temperature, Refeyn One; margin of error of each mass about 20-25%"}, "[2]": {"target": "chicken skeletal muscle actin (filaments, 10% Alexa Fluor 488 labeled) (chicken) (UniProt P68139)", "test": "single-molecule TIRF microscopy (dwell time); 1 nM TAMRA–VASP at the trailing barbed end of two-filament bundles; 1.5 µM actin (10% Alexa Fluor 488 labeled), 673 nM fascin, TIRF buffer, room temperature; 0.5 s/frame; one-phase decay fit of 1−cumulative frequency"}, "[3]": {"target": "mUb-K240 VASP (VASP^CCC-SSA K240C crosslinked by bismaleimidoethane to ubiquitin^(1-74, G75C)) (UniProt P0CG48)", "test": "mass photometry; 15 nM VASP, room temperature, Refeyn One; margin of error of each mass about 20-25%"}, "[4]": {"target": "unmodified VASP (TAMRA–VASP; cysteine-light VASP^CCC-SSA with an N-terminal GGG motif) (human)", "test": "mass photometry; 15 nM VASP, room temperature, Refeyn One; margin of error of each mass about 20-25%"}, "[5]": {"target": "mUb-K286 VASP (VASP^CCC-SSA K286C crosslinked by bismaleimidoethane to ubiquitin^(1-74, G75C)) (UniProt P0CG48)", "test": "mass photometry; 15 nM VASP, room temperature, Refeyn One; margin of error of each mass about 20-25%"}}, "data": [{"substance": "mmUb-K240/K286 VASP (VASP^CCC-SSA K240C, K286C crosslinked by bismaleimidoethane to two ubiquitin^(1-74, G75C)) (from UniProt P0CG48 1-75) (complex)", "values": [{"measurement": "stoichiometry N", "setting": "[1]", "result": 4}, {"measurement": "lifetime τ1 at the barbed end", "setting": "[2]", "result": 1.14, "unit": "s"}]}, {"substance": "mUb-K240 VASP (VASP^CCC-SSA K240C crosslinked by bismaleimidoethane to ubiquitin^(1-74, G75C)) (from UniProt P0CG48 1-75) (complex)", "values": [{"measurement": "stoichiometry N", "setting": "[3]", "result": 4}]}, {"substance": "unmodified VASP (TAMRA–VASP; cysteine-light VASP^CCC-SSA with an N-terminal GGG motif) (natural protein)", "values": [{"measurement": "stoichiometry N", "setting": "[4]", "result": 4}, {"measurement": "lifetime τ1 at the barbed end", "setting": "[2]", "result": 1.17, "unit": "s"}]}, {"substance": "mUb-K286 VASP (VASP^CCC-SSA K286C crosslinked by bismaleimidoethane to ubiquitin^(1-74, G75C)) (from UniProt P0CG48 1-75) (complex)", "values": [{"measurement": "stoichiometry N", "setting": "[5]", "result": 4}]}]}
